Measured values taken from patent publication US20140127127.

Test system: L-pyroglutamyl-L-prolyl-L-arginine-p-nitroaniline hydrochloride

Chain of recombinant human hepsin extracellular region (Ser46 to Leu417), produced in P. pastoris (chain, as listed by the source): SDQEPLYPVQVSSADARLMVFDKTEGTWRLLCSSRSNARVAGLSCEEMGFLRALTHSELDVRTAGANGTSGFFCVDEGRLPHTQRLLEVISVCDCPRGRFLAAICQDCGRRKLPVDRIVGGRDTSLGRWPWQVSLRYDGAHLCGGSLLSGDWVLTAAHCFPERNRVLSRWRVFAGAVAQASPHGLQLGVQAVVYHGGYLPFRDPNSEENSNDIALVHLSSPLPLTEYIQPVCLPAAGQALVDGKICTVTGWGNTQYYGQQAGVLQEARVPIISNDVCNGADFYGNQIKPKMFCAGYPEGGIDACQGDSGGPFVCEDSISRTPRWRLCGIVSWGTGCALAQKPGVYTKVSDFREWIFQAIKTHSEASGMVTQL

How did the Km turn out when “recombinant human hepsin extracellular region (Ser46 to Leu417), produced in P. pastoris” was run?
Its Km is 0.4 nM hepsin, Km=170 µM.

And the “enzymatic cleavage of chromogenic substrate” value?
The value was “The purified hepsin was enzymatically active (FIG. 1B), cleaving the chromogenic serine protease substrate pyroGlu-Pro-Arg-pNA”.
